Article PMC4793259 (Journal of Extracellular Vesicles, 2016)

Biological target: epidermal growth factor receptor (Homo sapiens (A431, HeLa cells), UniProt P00533)
Test: flow cytometry on cells

binding result: no binding (tested: 5 µg/mL)
B1: GPI-anchored HA-tagged R2 nanobody (DAF-R2) displayed on Neuro2A extracellular vesicles (VHH)
VHH: QVQLQESGGGLVQAGGSLRLSCAASGRAASGHGHYGMGWFRQVPGKEREFVAAIRWSGKETWYKDSVKGRFTISRDNAKTTVYLQMNSLKGEDTAVYYCAARPVRVADISLPVGFDYWGQGTQVTVSS
